The values that follow come from article PMC4942575, “Plastid-nucleus communication involves calcium-modulated MAPK signalling”.

One series deals with MBP-ABI4 AAA (Arabidopsis thaliana, UniProt A0MES8 1-328, T111A;S114A;S130A). In words: EMSA; poly(dI/dC); 10 ul: 2 ug protein, 200 fmol biotin probe, 1 ul poly(dI/dC), 1x LightShift binding buffer, 5% glycerol; room temperature 20 min; 6% native PAGE; pH and salt not given. Conditions: protein: recombinant; tags: MBP (pETMALc-H); label: 3' biotin. For orientation: In EMSA bound probe runs differently from free probe, usually more slowly.

The next series deals with MBP-ABI4 WT (Arabidopsis thaliana, UniProt A0MES8 1-328). As to the kind of experiment: EMSA; poly(dI/dC); competed by excess unlabelled probe; 10 ul: 2 ug protein, 200 fmol biotin probe, 1 ul poly(dI/dC), 1x LightShift binding buffer, 5% glycerol; room temperature 20 min; 6% native PAGE; pH and salt not given. Conditions: protein: recombinant; tags: MBP (pETMALc-H); label: 3' biotin.
MBP-ABI4 WT, sequence (A0MES8 whole entry): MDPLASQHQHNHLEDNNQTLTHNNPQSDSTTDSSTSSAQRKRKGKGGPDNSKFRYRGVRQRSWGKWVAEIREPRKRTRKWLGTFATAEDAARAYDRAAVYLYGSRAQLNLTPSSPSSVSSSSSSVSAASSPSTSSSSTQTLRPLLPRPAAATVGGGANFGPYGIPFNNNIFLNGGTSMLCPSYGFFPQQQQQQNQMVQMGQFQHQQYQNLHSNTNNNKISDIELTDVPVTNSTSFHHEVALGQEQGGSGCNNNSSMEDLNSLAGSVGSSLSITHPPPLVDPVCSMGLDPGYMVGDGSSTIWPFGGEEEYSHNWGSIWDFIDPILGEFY

MBP-ABI4 AAA, sequence (A0MES8 whole entry T111A/S114A/S130A): as the sequence (A0MES8 whole entry) above, with T111A, S114A, S130A counted along it

B1: LHCB promoter probe (dsDNA)
DNA 1: GACTAGAGACTGCCACATAAGAATAGTAAAGTTA
DNA 2: TAACTTTACTATTCTTATGTGGCAGTCTCTAGTC
With B1, the binding result with MBP-ABI4 AAA is “no binding”; with MBP-ABI4 WT, “binds”.
